# Experimental data: PMC5633104 (The Journal of Biological Chemistry, 2017)
# T1: Autophosphorylated GST-tagged Jak3-WT (P-Jak3-WT) (UniProt P52333 1-1124, autophosphorylated on tyrosine (sites not given))
# T1 construct: also called phosphorylated Jak3; source: E. coli BL-21, purified, autophosphorylated
# T1 sequence (looked up): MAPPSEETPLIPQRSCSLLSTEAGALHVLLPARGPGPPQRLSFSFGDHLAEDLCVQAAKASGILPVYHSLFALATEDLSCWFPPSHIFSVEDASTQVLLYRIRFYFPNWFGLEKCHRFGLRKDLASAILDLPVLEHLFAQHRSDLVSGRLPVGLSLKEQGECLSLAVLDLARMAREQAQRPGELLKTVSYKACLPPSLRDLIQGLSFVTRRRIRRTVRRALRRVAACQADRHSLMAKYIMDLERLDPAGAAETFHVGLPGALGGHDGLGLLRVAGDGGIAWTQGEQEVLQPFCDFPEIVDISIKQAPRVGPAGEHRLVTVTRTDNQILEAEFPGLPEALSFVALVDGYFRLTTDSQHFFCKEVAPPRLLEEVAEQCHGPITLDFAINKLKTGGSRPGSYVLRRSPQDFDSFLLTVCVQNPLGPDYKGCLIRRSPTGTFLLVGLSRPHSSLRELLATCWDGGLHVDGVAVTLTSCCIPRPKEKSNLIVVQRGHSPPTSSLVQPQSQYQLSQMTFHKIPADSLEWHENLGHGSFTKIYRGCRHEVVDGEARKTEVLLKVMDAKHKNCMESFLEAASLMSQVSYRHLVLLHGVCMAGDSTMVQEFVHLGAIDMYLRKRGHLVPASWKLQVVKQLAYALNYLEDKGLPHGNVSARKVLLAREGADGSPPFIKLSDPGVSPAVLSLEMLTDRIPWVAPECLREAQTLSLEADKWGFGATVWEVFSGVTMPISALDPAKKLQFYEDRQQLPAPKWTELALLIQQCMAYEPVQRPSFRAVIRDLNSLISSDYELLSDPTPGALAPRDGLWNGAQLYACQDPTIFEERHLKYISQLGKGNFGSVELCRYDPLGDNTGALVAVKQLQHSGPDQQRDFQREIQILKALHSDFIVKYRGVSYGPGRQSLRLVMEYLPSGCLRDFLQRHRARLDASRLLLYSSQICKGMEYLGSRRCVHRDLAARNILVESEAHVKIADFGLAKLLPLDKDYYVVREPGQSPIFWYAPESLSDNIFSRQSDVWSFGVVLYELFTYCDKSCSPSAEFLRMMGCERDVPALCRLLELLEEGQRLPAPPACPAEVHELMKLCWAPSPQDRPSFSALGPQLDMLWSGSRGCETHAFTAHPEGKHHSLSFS
# Key:
# [1] = biological target: His-tagged β-catenin–WT, tyrosine-phosphorylated form (P–β-catenin) (UniProt P35222); assay: ELISA; called a pairwise binding assay, done as in refs. 19, 20; by the legends a β-catenin-coated 96-well microtiter plate with Jak3 added, optical density read; Kd by Hyperbol-fit (MicroCal Origin)
# Hif1α = Hif1α (UniProt Q16665); assay: co-IP and immunoblot; conditions: reference: wild type, EGF + IL-2; sites Y30,Y64,Y86
# [2] = biological target: T1, Autophosphorylated GST-tagged Jak3-WT …; assay: ELISA; called a pairwise binding assay, done as in refs. 19, 20; by the legends a β-catenin-coated 96-well microtiter plate with Jak3 added, optical density read; Kd by Hyperbol-fit (MicroCal Origin); conditions: both partners purified
molecule,measurement,setting,value
Jak3 with the kinase domain deleted (domain or fragment),fold decrease of the interaction against Jak3-WT,[1],> 4 fold
"β-catenin (from UniProt P35222) Y30F,Y64F,Y86F, EGF + IL-2",binding against the reference,Hif1α,stronger
"His-tagged β-catenin–WT, tyrosine-phosphorylated form (P–β-catenin) (natural protein, UniProt P35222 1-781, looked up, tyrosine-phosphorylated (made in TKX1; sites not stated), β-catenin, wild type, full-length cDNA; also called phosphorylated β-catenin; source: E. coli TKX1, purified) MATQADLMELDMAMEPDRKAAVSHWQQQSYLDSGIHSGATTTAPSLSGKGNPEEEDVDTSQVLYEWEQGFSQSFTQEQVADIDGQYAMTRAQRVRAAMFPETLDEGMQIPSTQFDAAHPTNVQRLAEPSQMLKHAVVNLINYQDDAELATRAIPELTKLLNDEDQVVVNKAAVMVHQLSKKEASRHAIMRSPQMVSAIVRTMQNTNDVETARCTAGTLHNLSHHREGLLAIFKSGGIPALVKMLGSPVDSVLFYAITTLHNLLLHQEGAKMAVRLAGGLQKMVALLNKTNVKFLAITTDCLQILAYGNQESKLIILASGGPQALVNIMRTYTYEKLLWTTSRVLKVLSVCSSNKPAIVEAGGMQALGLHLTDPSQRLVQNCLWTLRNLSDAATKQEGMEGLLGTLVQLLGSDDINVVTCAAGILSNLTCNNYKNKMMVCQVGGIEALVRTVLRAGDREDITEPAICALRHLTSRHQEAEMAQNAVRLHYGLPVVVKLLHPPSHWPLIKATVGLIRNLALCPANHAPLREQGAIPRLVQLLVRAHQDTQRRTSMGGTQQQFVEGVRMEEIVEGCTGALHILARDVHNRIVIRGLNTIPLFVQLLYSPIENIQRVAAGVLCELAQDKEAAEAIEAEGATAPLTELLHSRNEGVATYAAAVLFRMSEDKPQDYKKRLSVELTSSLFRTEPMAWNETADLGLDIGAQGEPLGYRQDDPSYRSFHSGGYGQDALGMDPMMEHEMGGHHPGADYPVDGLPDLGHAQDLMDGLPPGDSNQLAWFDTDL",Kd,[2],280 nM
